Data reported in patent US20160046725A1 (PIERRE FABRE MEDICAMENT, published 2016).
Changes are numbered by the printed parent chain.

T1: recombinant human Axl-Fc protein (R and D Systems, cat N° 154-AL) (human, UniProt P30530 26-451)
T1 construct: Bought construct; An anti-Histidine coating control hints at a His tag, not described; also called rhAxl-Fc; rh Axl-Fc; not shown: human Fc portion of the bought fusion
T1 sequence: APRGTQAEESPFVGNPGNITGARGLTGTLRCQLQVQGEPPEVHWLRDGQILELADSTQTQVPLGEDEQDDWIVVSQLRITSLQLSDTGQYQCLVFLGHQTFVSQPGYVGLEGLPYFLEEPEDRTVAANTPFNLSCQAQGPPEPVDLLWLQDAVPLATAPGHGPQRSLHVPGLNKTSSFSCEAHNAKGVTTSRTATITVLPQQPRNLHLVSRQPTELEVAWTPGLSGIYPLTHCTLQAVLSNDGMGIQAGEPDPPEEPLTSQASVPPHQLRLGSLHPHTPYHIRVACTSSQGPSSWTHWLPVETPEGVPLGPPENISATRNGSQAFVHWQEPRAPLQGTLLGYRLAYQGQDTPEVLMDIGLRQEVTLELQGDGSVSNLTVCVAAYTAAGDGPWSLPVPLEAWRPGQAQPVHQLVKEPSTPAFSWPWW

T2: monkey Axl receptor on COS7 cells (African green monkey, UniProt A0A0D9S0W1 26-894)
T2 construct: also called monkey cellular form of the Axl receptor
T2 sequence: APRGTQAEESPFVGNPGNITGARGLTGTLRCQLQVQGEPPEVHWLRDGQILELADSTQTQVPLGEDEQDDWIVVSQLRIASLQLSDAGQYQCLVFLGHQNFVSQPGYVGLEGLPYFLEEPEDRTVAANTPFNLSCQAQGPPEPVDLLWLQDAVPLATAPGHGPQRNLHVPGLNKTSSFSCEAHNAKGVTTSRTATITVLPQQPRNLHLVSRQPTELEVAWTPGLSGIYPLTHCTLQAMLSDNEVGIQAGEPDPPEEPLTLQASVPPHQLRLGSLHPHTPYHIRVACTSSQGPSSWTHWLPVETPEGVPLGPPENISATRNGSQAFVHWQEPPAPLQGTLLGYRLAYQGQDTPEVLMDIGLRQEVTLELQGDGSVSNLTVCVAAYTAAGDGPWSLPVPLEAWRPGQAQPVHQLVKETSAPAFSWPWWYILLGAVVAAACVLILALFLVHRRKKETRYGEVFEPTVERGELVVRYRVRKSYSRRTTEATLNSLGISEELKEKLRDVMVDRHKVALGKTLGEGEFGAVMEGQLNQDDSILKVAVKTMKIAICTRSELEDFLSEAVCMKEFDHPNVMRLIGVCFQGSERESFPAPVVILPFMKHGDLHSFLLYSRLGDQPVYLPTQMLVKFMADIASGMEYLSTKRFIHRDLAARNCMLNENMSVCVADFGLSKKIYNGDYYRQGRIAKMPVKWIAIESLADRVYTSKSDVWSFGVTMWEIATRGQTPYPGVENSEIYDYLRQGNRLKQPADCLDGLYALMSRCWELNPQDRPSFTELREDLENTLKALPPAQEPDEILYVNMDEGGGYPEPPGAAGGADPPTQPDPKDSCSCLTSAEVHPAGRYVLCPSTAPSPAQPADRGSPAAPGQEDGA

B1: 110D7 anti-Axl monoclonal antibody (antibody, V domains shown)
VH: EVKLVESGGGLVQPGGSLKLSCATSGFTFSDYYMYWVRQTPEKRLEWVAYISNGGGSTYYPDTVKGRFTMSRDNAKNTLYLQMSRLKSEDTAMYYCARLSFYAMDYWGQGTSVTVSS
VL: DIVMTQSHKFMSTSVGDRVSITCKASQDVTTAVAWYQQKPGQSPKLLIYWASTRHTGVPDRFTGSGSGTDYTLTISSVQAEDLALYYCQQHYRIPFTFGSGTKLEIK
notes: Murine monoclonal antibody purified from a hybridoma; a mIgG1 isotype control (9G4) is used beside it; also called m110D7; monoclonal antibody 110D7 derived from the hybridoma I-3959
B2: 1003A2 anti-Axl monoclonal antibody (antibody, V domains shown)
VH: EVKLVESGGGLVQPGGSLKLSCAASGFTFNSYSMSWVRQTPEKRLEWVAYISNGGGRTYYPDTIKGRFTLSRDNDRNTLYLQMSSLKSEDTAMYYCARGTTESYYALDYWGQGTSVTVSS
VL: B1 VL with V15L, V19I, T30I, T72N, Y92F, R93S, I94T, F96L, S100A, I106L
notes: Murine monoclonal antibody purified from a hybridoma; a mIgG1 isotype control (9G4) is used beside it; also called monoclonal antibody 1003A2 derived from the hybridoma I-4499
B3: 1024G11 anti-Axl monoclonal antibody (antibody, V domains shown)
VH: B2 VH with K19N, N30S, Y50F, I64V, L70F, D75A, K87N, Y95F, L107M
VL: B1 VL with T30I, Y87F, Y92L, R93S, I94T, F96L, S100A, I106L
notes: Murine monoclonal antibody purified from a hybridoma; a mIgG1 isotype control (9G4) is used beside it; also called monoclonal antibody 1024G11 derived from the hybridoma I-4501

molecular target: T1, recombinant human Axl-Fc protein (R and …); assay: competition ELISA, rhAxl-Fc on coated rhGas6 (competitor: Gas6)
Protocol: To further characterize the anti-Axl Mabs, Gas6 competition assays were performed. In this assay, the free rhAxl-Fc protein and the anti-Axl antibody are incubated to form antigen-antibody complex and then the complexes are loaded on Gas6-coated surface in the assay plate. The unbound antibody-antigen complexes are washed off before adding enzyme-linked secondary antibody against the human Fc portion of the rhAxl-Fc protein. The substrate is then added and the antigen concentration can then be determined by the signal strength elicited by the enzyme-substrate reaction.
Briefly reaction mixture comprising the rhAxl-Fc protein in presence or not of the Mabs to be tested, are prepared on a separate saturated (0.5% gelatin in PBS 1×) plate. Serial 1: 2 dilutions (starting from 80 μg/ml on 12 columns) of murine Axl antibodies (110D7, 1003A2 and 1024G11) are performed. Then 0.5 μg/ml of the rhAxl-Fc protein is added (R and D Systems, ref 154AL/CF), except to the negative control line that contains only ELISA diluant (0.1% gelatin, 0.05% Tween 20 in PBS 1×). After homogenisation, the competition samples are loaded on Gas6-coated plates with a 6 μg/ml rhGas6 solution in PBS (R and D Systems cat N° 885-GS-CS/CF). After incubation and several washes, bound rhAxl-Fc proteins are detected using a goat anti-Human IgG-HRP (Jackson, ref 109-035-098). Once bound, the TMB substrate is added to the plates. The reaction is stopped by addition of H₂SO₄ acid solution and the obtained optical densities read at 450 nm using a microplate reader instrument.

Row | Binder | antibody concentration above which competition with Gas6 binding occurs
1 | B1 | > 16.7 nM
2 | B2 | > 16.7 nM
3 | B3 | > 16.7 nM

molecular target: T2, monkey Axl receptor on COS7 cells; assay: flow cytometry titration on COS7 cells
Protocol: For 110D7, respectively 1003A2 and 1024G11, cellular binding purpose, 2·10⁵ cells were incubated with an antibody concentration range prepared by ½ serial dilution (12 points) of a 10 μg/ml (6.66 10⁻⁸ M) antibody solution of 110D7, respectively 1003A2 and 1024G11, or m9G4 (mIgG1 isotype control Mab) for 20 min at 4° C. After 3 washes in phosphate-buffered saline (PBS) supplemented with 1% BSA and 0.01% NaN₃, cells were incubated with secondary antibody goat anti-mouse Alexa 488 (dilution 1/500) for 20 minutes at 4° C. After 3 additional washes in PBS supplemented with 1% BSA and 0.1% NaN₃, cells were analyzed by FACS (Facscalibur, Becton-Dickinson). At least 5000 cells were assessed to calculate the mean value of fluorescence intensity. Data are analyzed using Prism software.

Row | Binder | antibody concentration above which the plateau is reached
4 | B1 | > 1000 pM
5 | B2 | > 520 pM
6 | B3 | > 520 pM
